The target in assay [1] is kappa myeloma antigen (KMA) (human). The assay is described as follows: cell-based or functional assay.
A further assay has as its target Fc-receptors. In words: cell-based or functional assay.

The record followed here is US20220193232A1.

Regarding “KM.CAR_8a_28TM_41BBz (from UniProt P01732 138-182; P10747 153-179; Q07011 214-255) (receptor)”, in assay [1], the CAR expression (GFP) in culture in the presence of JJN3 was 5% and the expansion of CAR T-cell culture in the presence of JJN3 is 8 fold.
In assay [1], “KM.CAR_h_28TM_41BBz (from UniProt P10747 153-179; Q07011 214-255) (receptor)” had a CAR expression (GFP) in culture with JJN3 of 17% and an expansion of CAR T-cell culture with JJN3 of 5 fold.
With KM.CAR-hCH2CH3-28z (receptor), the enrichment of CAR expressing T-cells in culture with PBMC alone (% of CD3+ T-cells) with Fc-receptors amounted to 28.
